The Human Domainome abundance scans (Beltran et al. 2025)
± gives the uncertainty stated by the source.

B1: Ankyrin-1, residues 1405 to 1484; numbered along this chain, P16157 (parent)
chain: MKMAVISEHLGLSWAELARELQFSVEDINRIRVENPNSLLEQSVALLNLWVIREGQNANMENLYTALQSIDRGEIVNMLE

Variants of: B1
Experiment: abundance fitness (aPCA) (normalised: wild type 0, dead -1); higher = more abundant; growth selection in yeast, the domain comes from the species named
Conditions: Homo sapiens
MKMAVISEHLGLSWAELARELQFSVEDINRIRVENPNSLLEQRVALLNLWVIREGQNANMENLYTALQSIDRGEIVNMLE [S43R] showed an abundance fitness of -0.89 ± 0.14. In the case of MKMAVISEHLGLSWAELARELQFSVEDINRIRVENPNSLLEQKVALLNLWVIREGQNANMENLYTALQSIDRGEIVNMLE [S43K], the abundance fitness is reported as -0.598 ± 0.15. In the case of MKMAVISEHLGLSWAELARELQFSVEDINRIRVENPNSLLEQCVALLNLWVIREGQNANMENLYTALQSIDRGEIVNMLE [S43C], the abundance fitness is reported as -0.552 ± 0.11. Work on MKMAVISEHLGLSWAELARELQFSVEDINRIRVENPNSLLEQWVALLNLWVIREGQNANMENLYTALQSIDRGEIVNMLE [S43W] yielded an abundance fitness of -0.805 ± 0.17. Work on MKMAVISEHLGLSWAELARELQFSVEDINRIRVENPNSLLEQDVALLNLWVIREGQNANMENLYTALQSIDRGEIVNMLE [S43D] yielded an abundance fitness of -0.503 ± 0.15. MKMAVISEHLGLSWAELARELQFSVEDINRIRVENPNSLLEQYVALLNLWVIREGQNANMENLYTALQSIDRGEIVNMLE [S43Y] gave an abundance fitness of -0.857 ± 0.16. Work on MKMAVISEHLGLSWAELARELQFSVEDINRIRVENPNSLLEQSVCLLNLWVIREGQNANMENLYTALQSIDRGEIVNMLE [A45C] yielded an abundance fitness of -0.259 ± 0.034. For MKMAVISEHLGLSWAELARELQFSVEDINRIRVENPNSLLEQSVQLLNLWVIREGQNANMENLYTALQSIDRGEIVNMLE [A45Q], the abundance fitness was -0.139 ± 0.1. Work on MKMAVISEHLGLSWAELARELQFSVEDINRIRVENPNSLLEQSVILLNLWVIREGQNANMENLYTALQSIDRGEIVNMLE [A45I] yielded an abundance fitness of -0.45 ± 0.14. For MKMAVISEHLGLSWAELARELQFSVEDINRIRVENPNSLLEQSVRLLNLWVIREGQNANMENLYTALQSIDRGEIVNMLE [A45R], the abundance fitness was -0.147 ± 0.036. Variant MKMAVISEHLGLSWAELARELQFSVEDINRIRVENPNSLLEQSVMLLNLWVIREGQNANMENLYTALQSIDRGEIVNMLE [A45M] has an abundance fitness of -0.173 ± 0.12. In the case of MKMAVISEHLGLSWAELARELQFSVEDINRIRVENPNSLLEQSVDLLNLWVIREGQNANMENLYTALQSIDRGEIVNMLE [A45D], the abundance fitness is reported as -0.306 ± 0.08. MKMAVISEHLGLSWAELARELQFSVEDINRIRVENPNSLLEQSVGLLNLWVIREGQNANMENLYTALQSIDRGEIVNMLE [A45G] gave an abundance fitness of -0.248 ± 0.05. In the case of MKMAVISEHLGLSWAELARELQFSVEDINRIRVENPNSLLEQSVELLNLWVIREGQNANMENLYTALQSIDRGEIVNMLE [A45E], the abundance fitness is reported as -0.023 ± 0.074. In the case of MKMAVISEHLGLSWAELARELQFSVEDINRIRVENPNSLLEQSVNLLNLWVIREGQNANMENLYTALQSIDRGEIVNMLE [A45N], the abundance fitness is reported as -0.226 ± 0.18. For MKMAVISEHLGLSWAELARELQFSVEDINRIRVENPNSLLEQSVLLLNLWVIREGQNANMENLYTALQSIDRGEIVNMLE [A45L], the abundance fitness was -0.627 ± 0.088. For MKMAVISEHLGLSWAELARELQFSVEDINRIRVENPNSLLEQSVFLLNLWVIREGQNANMENLYTALQSIDRGEIVNMLE [A45F], the abundance fitness was -0.65 ± 0.14. Work on MKMAVISEHLGLSWAELARELQFSVEDINRIRVENPNSLLEQSVPLLNLWVIREGQNANMENLYTALQSIDRGEIVNMLE [A45P] yielded an abundance fitness of -0.77 ± 0.28. For MKMAVISEHLGLSWAELARELQFSVEDINRIRVENPNSLLEWSVALLNLWVIREGQNANMENLYTALQSIDRGEIVNMLE [Q42W], the abundance fitness was -0.794 ± 0.17. In the case of MKMAVISEHLGLSWAELARELQFSVEDINRIRVENPNSLLEESVALLNLWVIREGQNANMENLYTALQSIDRGEIVNMLE [Q42E], the abundance fitness is reported as -0.926 ± 0.18. MKMAVISEHLGLSWAELARELQFSVEDINRIRVENPNSLLEFSVALLNLWVIREGQNANMENLYTALQSIDRGEIVNMLE [Q42F] gave an abundance fitness of -0.899 ± 0.25. MKMAVISEHLGLSWAELARELQFSVEDINRIRVENPNSLLETSVALLNLWVIREGQNANMENLYTALQSIDRGEIVNMLE [Q42T] gave an abundance fitness of -0.723 ± 0.2. In the case of MKMAVISEHLGLSWAELARELQFSVEDINRIRVENPNSLLEDSVALLNLWVIREGQNANMENLYTALQSIDRGEIVNMLE [Q42D], the abundance fitness is reported as -0.698 ± 0.17. With MKMAVISEHLGLSWAELARELQFSVEDINRIRVENPNSLLEGSVALLNLWVIREGQNANMENLYTALQSIDRGEIVNMLE [Q42G] the abundance fitness was -0.923 ± 0.12. MKMAVISEHLGLSWAELARELQFSVEDINRIRVENPNSLLEYSVALLNLWVIREGQNANMENLYTALQSIDRGEIVNMLE [Q42Y] gave an abundance fitness of -0.864 ± 0.28. For MKMAVISEHLGLSWAELARELQFSVEDINRIRVENPNSLLEPSVALLNLWVIREGQNANMENLYTALQSIDRGEIVNMLE [Q42P], the abundance fitness was -1.04 ± 0.23. MKMAVISEHLGLSWAELARELQFSVEDINRIRVENPNSLLELSVALLNLWVIREGQNANMENLYTALQSIDRGEIVNMLE [Q42L] gave an abundance fitness of -0.863 ± 0.11. In the case of MKMAVISEHLGLSWAELARELQFSVEDINRIRVENPNSLLEASVALLNLWVIREGQNANMENLYTALQSIDRGEIVNMLE [Q42A], the abundance fitness is reported as -0.257 ± 0.064. Work on MKMAVISEHLGLSWAELARELQFSVEDINRIRVENPNSLLEVSVALLNLWVIREGQNANMENLYTALQSIDRGEIVNMLE [Q42V] yielded an abundance fitness of -0.813 ± 0.1. Variant MKMAVISEHLGLSWAELARELQFSVEDINRIRVENPNSLLEMSVALLNLWVIREGQNANMENLYTALQSIDRGEIVNMLE [Q42M] has an abundance fitness of -0.172 ± 0.12. In the case of MKMAVISEHLGLSWAELARELQFSVEDINRIRVENPNSLLESSVALLNLWVIREGQNANMENLYTALQSIDRGEIVNMLE [Q42S], the abundance fitness is reported as -0.383 ± 0.079. Variant MKMAVISEHLGLSWAELARELQFSVEDINRIRVENPNSLLENSVALLNLWVIREGQNANMENLYTALQSIDRGEIVNMLE [Q42N] has an abundance fitness of -0.882 ± 0.33. With MKMAVISEHLGLSWAELARELQFSVEDINRIRVENPNSLLEISVALLNLWVIREGQNANMENLYTALQSIDRGEIVNMLE [Q42I] the abundance fitness was -0.915 ± 0.27. MKMAVISEHLGLSWAELARELQFSVEDINRIRVENPNSLLECSVALLNLWVIREGQNANMENLYTALQSIDRGEIVNMLE [Q42C] gave an abundance fitness of -0.061 ± 0.095. Work on MKMAVISEHLGLSWAELARELQFSVEDINRIRVENPNSLLERSVALLNLWVIREGQNANMENLYTALQSIDRGEIVNMLE [Q42R] yielded an abundance fitness of -0.152 ± 0.068.
